Results on 142 substances are retold here after the supplement of paper PMC12042874.

± gives the uncertainty stated by the source.

The data set is described as follows: amyloid nucleation score (Sup35N fusion, yeast selection) (log enrichment); library NNK2; higher = more nucleation; inactive = no reads after selection. Put shortly:
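Three technical output replicates were used for random libraries. Psi-negative yeast expressing peptides of 20 random codons fused to Sup35N were induced with 100 μM copper sulfate for 24 hours and grown 7 days at 30°C on medium lacking adenine and uracil, and input and output plasmid inserts were Illumina-sequenced, excluding sequences with under 100 input reads. The nucleation score is the DiMSum log enrichment of output over input reads, centred on the mode score of non-aggregating sequences.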
As for LLIINIEMYRCNRLLYIDNN, the amyloid nucleation score was 3.15 ± 0.097.
With LLITR the figure was -0.183 ± 1; with LLLGTSVDVFL, 0.07 ± 0.74.
Substance LLLLWYRNQPHITDAFRQEL gave an amyloid nucleation score of 0.733 ± 0.44.
With LLNFMCIYYEWFQRSAEHAT the figure was -0.605 ± 0.76.
With LLNYTRGACCDRTRVQFSTT the figure was -0.079 ± 0.76; with LLQKFVMGGEVRRESGGVRC, 0.726 ± 0.25; with LLRAT, 0.598 ± 0.23.
The value for LLRILANQLKYYETTLCVGG was -0.27 ± 1.1.
Consider LLSPYMLRLMV, for which the amyloid nucleation score was -0.299 ± 0.79.
The value for LLSSFIALSWCWRWFKHSS was 4.972 ± 0.045.
With LLSVASRLLVPFRERGNGS the figure was -0.256 ± 1.1; with LLVAKYNLEYRMLSCSDNRQ, 3.1 ± 0.17.
Turning to LLYHVGSTMGKPIYN, the amyloid nucleation score is -0.669 ± 1.
The value for LMALTPIVVVYIMGSMDLST was -0.436 ± 1.1; that for LMCNKESSNPICGLWVCFWA was 9.489 ± 0.037.
With LMCTSAKSADMSH the figure was 0.992 ± 0.6.
With LMFMLRYPLHASWLGSTHVY the figure was 0.422 ± 0.44.
Regarding LMIVKMTMFDATGHVGFLMV, the amyloid nucleation score amounted to 2.82 ± 0.071.
With LMLLYIRSKYGEFVWIPKVH the figure was -0.021 ± 0.54; with LMLTCKLSFPGLVNLSCSPI, -0.84 ± 0.34; with LMLVVQALNHAYLLQVMSCT, 0.805 ± 0.67.
With LMPDSCSNPRWKTEVLTIRG the figure was -0.199 ± 1.1; with LMSQCT, -0.926 ± 0.64.
The value for LMTSYLRSPDSAPETLRE was -0.484 ± 0.49; that for LNALIHYVER was 0.842 ± 0.42; that for LNCYFGHRDPIFSRMNICDY was -0.469 ± 1.1.
In the case of LNDGPEGTCWSPNGVNSLLH, the amyloid nucleation score was -0.382 ± 0.76.
LNDHNFLCPLTYKVRRLYNN showed an amyloid nucleation score of -1.53 ± 0.53.
The value for LNFIRCYVSPCVSFLSLYII was “inactive”.
With LNFWLHD the figure was 0.09 ± 1; with LNHGNMEYWLSMDVINLSQI, 0.238 ± 0.3.
The value for LNHKDICFARNLVRVREGHN was 0.809 ± 0.38; that for LNILHNFRKRTLFAAMFVLR was “inactive”.
Substance LNISFSDSLSRLVV yielded an amyloid nucleation score of -0.935 ± 1.1.
With LNLLK the figure was -1.18 ± 1.1; with LNMVLDF, “inactive”; with LNQNPLFTN, -0.11 ± 0.76.
Regarding LNRDFMVHLSCGTWPSARKW, the amyloid nucleation score was 0.067 ± 0.5.
The value for LNSMTILLSN was 0.54 ± 0.56.
With LNTTLLTRPVLSSYRGSTAE the figure was 1.23 ± 0.45; with LNVDGAFGKTAWYFRFVIQV, -0.127 ± 1.
The value for LNVGPQGYMCGSPLYDHCG was 2.73 ± 0.076; that for LPFMECC was -0.696 ± 1.
The substance LPGQGIWWHICIEG returned an amyloid nucleation score of 1.24 ± 0.14.
With LPNRVNDRDAEYHVMLLCK the figure was 0.095 ± 0.27; with LQASIIAMVRGRTNDSFLED, 2.7 ± 0.21.
Consider LQCYPWIYGGSGHPYRFWNL, for which the amyloid nucleation score was -0.331 ± 0.8.
On to LQHYDLGSCSCRWVLVTSDK, for which the amyloid nucleation score amounted to 0.584 ± 0.22.
With LQMPVVF the figure was -0.577 ± 0.26; with LQSTILIYVVNFFTTGIMGK, 1.75 ± 0.11.
With LQVVVMFCPSL the figure was 8.29 ± 0.024; with LRAGLMHGWMRFRCTRVACV, -0.914 ± 0.64.
As to LRFMNPRSALRYTKVSCTGN, the amyloid nucleation score is -0.587 ± 0.54.
LRKALIDAFRT: the amyloid nucleation score stood at 2.18 ± 0.066.
With LRKIYFWWAATNALLEMRGW the figure was 0.057 ± 0.38.
With LRKPSTIFEHDAKNSRV the figure was -0.67 ± 0.79; with LRMHFMMWTRRVNLVRHGNN, “inactive”; with LRNFSYIRQGGSRVSSASGY, -1.18 ± 1.1.
With LRNGVPDADASSRYFWAAEW the figure was 0.712 ± 0.24.
With LRQGPTHFLYLGCYFVDAMR, the amyloid nucleation score is 7.119 ± 0.066.
With LRRKEVKWLCL the figure was 0.754 ± 0.47.
In the case of LRSGGLFRDIMCRRDYVRCF, the amyloid nucleation score was 1.23 ± 0.32.
The value for LRSLINCYAKVICRTYRFVG was -0.885 ± 0.61.
As for LRSQSHR, the amyloid nucleation score amounted to 1.31 ± 0.33.
With LRSWEGLSQAWRPCCVILHN the figure was 0.48 ± 0.34; with LRTSSSYSFLEYIRS, -1.08 ± 1; with LRVGSCNVTSLMGNLVGLDS, 1.37 ± 0.42.
With LRVMSSISDDNAQEFDDFCV the figure was 3.75 ± 0.062; with LRVQGGWL, 1.49 ± 0.34.
With LRYNADMVGCKFWWIPVWSL the figure was -0.843 ± 0.42; with LRYRVMT, 1.23 ± 0.52.
For LSAKWCTECNLAASRRLNIN, the amyloid nucleation score is 0.034 ± 0.32.
With LSDAMILNLRAIFSSISLLQ the figure was -0.86 ± 0.78; with LSDCE, “inactive”.
The value for LSDFEIFTLTIHSHLYHN was 1.66 ± 0.24; that for LSEFDHYDWVSSSTLFGFCC was -1.13 ± 1.1; that for LSESRRQVASASDLMKRRIP was 1.24 ± 0.66.
With LSFFSLSIQSCMHGSLKIDS the figure was -0.294 ± 1.1; with LSFLKVW, -0.654 ± 0.36; with LSFPHVLYFETCPCMARVVA, -0.081 ± 1.1.
Regarding LSGLRSFLRRWRGQVKPVLV, the amyloid nucleation score is -0.133 ± 1.
The value for LSGSY was -0.305 ± 1.1; that for LSHEFMIEW was -0.19 ± 0.62; that for LSKHPYGCVL was 0.862 ± 0.66.
In turn, LSMEVRGMVATMVVTWNFVS displayed an amyloid nucleation score of 0.07 ± 0.32.
In turn, LSRWKDRSRGWRGDAAPRIR registered an amyloid nucleation score of 0.539 ± 0.56.
As to LSSVILVLNNSVAFYILDAG, the amyloid nucleation score was determined as 3.83 ± 0.09.
The value for LSTCCVKVVVCRDFIIVDKF was 6.57 ± 0.039; that for LSVCLHHHNIAWDRCSGR was -0.469 ± 0.37; that for LSVSDEVRQV was -0.466 ± 0.79.
The value for LSYYKVIWGHLMVKYPTYRQ was -0.177 ± 0.32.
The value for LTAGVYSSSWSDVS was 1.4 ± 0.14; that for LTATFTNMGCTTGSKCLM was “inactive”.
For LTATLAFLVSCFYCSL, the amyloid nucleation score was 6.95 ± 0.028.
With LTCLFPFWRWCIPAAIEFRR the figure was 0.901 ± 0.28.
With LTEDTMFG the figure was -0.573 ± 0.76; with LTEVVMAILFSDDSRYIFCG, 1.41 ± 0.16; with LTFGCG, -0.903 ± 0.36.
On to LTFLYGVGVRFCRPSLVVQS, for which the amyloid nucleation score was 0.2 ± 0.24.
The value for LTGCAKLGSLKLSLAPVYVD was 0.811 ± 0.82; that for LTGLFAGLKGKCLFTVNRGI was -0.318 ± 0.44.
The value for LTLCSFRCTKLMR was 1.11 ± 0.25; that for LTLHAVWI was -0.022 ± 0.27; that for LTMLPDNVPTKALFSYLSVT was -1.24 ± 0.76.
Regarding LTPEFSVCGCRTEG, the amyloid nucleation score came out at 2.65 ± 0.072.
The value for LTPLICADNLD was -0.526 ± 0.35; that for LTPNCGKVGGRMRGRILSGV was 0.787 ± 0.3; that for LTRRVGIFFHFG was 4.74 ± 0.05.
With LTTSFANAWHFNFLGRPLH the figure was 2.18 ± 0.18.
With LTYLVADLL the figure was -0.142 ± 0.79.
With LVAALRV, the amyloid nucleation score was -0.452 ± 0.39.
The value for LVAHPLYGSTKWGN was -0.596 ± 0.79.
As to LVCYLMTMNSNGARSRGVPF, the amyloid nucleation score came out at 5.99 ± 0.063.
The value for LVFRGAVCDITRAG was -0.682 ± 0.76; that for LVFTCGWSDTRE was 5.08 ± 0.089.
The value for LVHYFICHVPFLIFRYDKVT was “inactive”; that for LVKCRGATCLIVTSDRLLYV was “inactive”.
The value for LVKCSVSVRGEILRFLRYMA was 0.26 ± 0.22.
Consider LVNSKYDLGSSGSFDNRFAC, for which the amyloid nucleation score is -0.242 ± 0.63.
With LVQMISKILYNEE the entry was “inactive”.
LVQMLVSV gave an amyloid nucleation score of -0.342 ± 1.
LVRGMDFHLNLDEKFFSATL: the amyloid nucleation score was -1.05 ± 0.56.
With LVRVGDFG the figure was -0.267 ± 0.54.
Consider LVSFGPLMDQGSCIALHSRR, for which the amyloid nucleation score worked out at 0.162 ± 0.31.
For the substance LVSFRKPILTSQ, the amyloid nucleation score was 0.164 ± 0.8.
The value for LVSVVNMVADSSRKSSQGEL was 4.875 ± 0.039.
The value for LVSYSDVGWPLYWFCSVRVP was 1.24 ± 0.2; that for LVTARQLARI was 0.121 ± 0.24.
The value for LVVVRMGGIGLESFVAHGEV was 0.524 ± 0.35.
As to LVVWPMNQPLPLSNRPTPKR, the amyloid nucleation score turned out to be 1.83 ± 0.3.
LVWIEMVSF came in with an amyloid nucleation score of -0.544 ± 0.78.
The value for LVYVWKDLAYMVLLHFRLFL was -1.16 ± 1.1; that for LWFGRSCGFGIGVYYRRPSL was -0.213 ± 0.48.
With LWFGTIHNNTVGSNIDFTFT, the amyloid nucleation score was 4.71 ± 0.092.
With LWGFMCFFW the figure was -1.41 ± 0.29; with LWIIPQELGLCLMCGVVCCV, -1.41 ± 0.75.
The value for LWLLMYGSW was 2.4 ± 0.1; that for LWLVYSESWSMYAMS was 1.19 ± 0.12; that for LWMCKTFYGAGLSPVVK was -0.038 ± 1.
Consider LWMVFSGNALEKYSSDFCHC, for which the amyloid nucleation score was -1.22 ± 0.78.
The value for LWVSSSLSL was -0.74 ± 0.45.
